Source: the supplement of paper PMC9732359
± gives the uncertainty stated by the source.

Assay: protein stability index of a GFP-peptide fusion (yeast GPS) (PSI 1-4); higher = more stable; sorted into four equal gates, so the index is relative within each strain
Method in brief: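 The protein stability index of a peptide was calculated by multiplying its read frequency in each gate by that gate's number and adding the products. The peptides were tiled 17-residue stretches of yeast proteins, fused downstream of GFP on a Cherry-expressing plasmid and carried in yeast as a pooled library. Mid-log cultures in leucine-free medium were sorted into four equal gates by GFP/Cherry ratio, and each gate's plasmids were PCR-amplified and Illumina-sequenced.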

Row | Sequence | protein stability index (doa10∆) | protein stability index (pdr5∆) | protein stability index (san1∆) | protein stability index (ubr1∆)
1 | NRLLPNLPEEERKQIHE [GRR1] | 1.26 ± 0.14 | 1.41 ± 0.079 | 1.71 ± 0.15 | 2.59 ± 0.13
2 | YVQVRQPIFVAHTAGRY [RPS5] | 1.7 ± 0.064 | 1.84 ± 0.059 | 1.89 ± 0.11 | 1.74 ± 0.068
3 | KDLKDDSIYTKPVKVAL [YJL039C/NUP192] | 2.81 ± 0.049 | 2.98 ± 0.045 | 2.73 ± 0.053 | 3.02 ± 0.04
4 | LIQLGVKPLESSAKRSK [SRP72] | 3.11 ± 0.073 | 2.97 ± 0.11 | 2.56 ± 0.12 | 2.88 ± 0.045
5 | LVLDLLTWLSSFSVCKI [IRR1] | 2.21 ± 0.06 | 1.59 ± 0.05 | 1.65 ± 0.073 | 1.71 ± 0.039
6 | RSTDEFNGAQLKAVTVE [RPT5] | 2.86 ± 0.29 | 3.71 ± 0.24 | – | 2.06 ± 0.19
7 | HQSELIIKQTVHPIPDV [YMR129W/POM152] | 2.74 ± 0.066 | 2.86 ± 0.055 | 2.55 ± 0.071 | 2.27 ± 0.061
8 | AFDLDGTGKSQSGSNSG [ROX3] | 3.44 ± 0.25 | 2.71 ± 0.2 | – | 3.42 ± 0.23
9 | SLKALASKYNCDKSVCR [RPL40A] | 3.08 ± 0.069 | 2.97 ± 0.089 | 3.12 ± 0.054 | 2.94 ± 0.087
10 | DVIAWKNVLANSIWGSS [ITC1] | 2.83 ± 0.14 | 2.95 ± 0.088 | 3.49 ± 0.12 | 3.28 ± 0.072
11 | GEFSGKNFSPTKRVEKP [RRP6] | 2.37 ± 0.089 | 2.47 ± 0.094 | 2.54 ± 0.078 | 3.22 ± 0.059
12 | WLLHNGFSTGIGDTIAD [RPO21] | 3.11 ± 0.16 | 3.24 ± 0.17 | 3.26 ± 0.093 | 3.06 ± 0.15
13 | VVFTRLVQRCWQWGNDR [CSN12] | 1.42 ± 0.092 | 1.4 ± 0.08 | 1.58 ± 0.14 | 1.52 ± 0.058
14 | LSAVAQAESMKFKLLNG [RPS3] | 3.06 ± 0.1 | 3.21 ± 0.1 | 2.83 ± 0.12 | 3.09 ± 0.079
15 | LFVFTEGWPKFQDTLYK [QCR10] | 3.21 ± 0.19 | 2.91 ± 0.22 | 3.08 ± 0.12 | –
16 | EAINGFKDETISKKIIG [SIR3] | 3.08 ± 0.065 | 3.19 ± 0.057 | 2.95 ± 0.082 | 3.09 ± 0.063
17 | VGGKSTVQNEILGDLGK [FAS2] | 3.02 ± 0.075 | 2.92 ± 0.1 | 2.18 ± 0.1 | 3.25 ± 0.11
18 | IPFPDHNQSPRNTYQSA [RPB2] | 2.97 ± 0.083 | 3.06 ± 0.067 | 3.22 ± 0.056 | 2.78 ± 0.063
19 | SQISPEKQTPNKKDKKK [RPN1] | 2.95 ± 0.063 | 2.9 ± 0.1 | 3.09 ± 0.06 | 3.12 ± 0.069
20 | YGYWFDCRMGNFYIQYD [AAR2] | 2.51 ± 0.048 | 2.08 ± 0.048 | 1.93 ± 0.081 | 2.49 ± 0.034
21 | LQYYILEYMNTARINNR [RRI2] | 2.12 ± 0.15 | 1.37 ± 0.097 | 1.96 ± 0.14 | 1.93 ± 0.12
22 | VLNQQLPIESQFVSKLV [BRR2] | 1.74 ± 0.066 | 1.98 ± 0.048 | 1.96 ± 0.1 | 2.01 ± 0.043
23 | ASYSKYLIDHIKVDGAV [RPL22B] | 2.92 ± 0.09 | 2.65 ± 0.11 | 2.62 ± 0.053 | 2.83 ± 0.063
24 | DSSTTSSNSQQSTPQPD [ITC1] | 3.04 ± 0.046 | 2.85 ± 0.048 | 2.69 ± 0.044 | 2.95 ± 0.038
25 | HIRRMVPLAMGIVSVSD [RPN1] | 1.32 ± 0.039 | 1.61 ± 0.052 | 1.55 ± 0.083 | 1.57 ± 0.044
26 | ASTINGASIIQVIFEIF [YML103C/NUP188] | 1.43 ± 0.059 | 1.9 ± 0.054 | 1.95 ± 0.087 | 1.94 ± 0.046
